Measurements: publication PMC5147500 (Cell, 2016)
Non-standard residues stand in square brackets, D forms with d. No end group written: not given here. SeMet = C[Se]CC[C@H](N)C(=O)O

Legend:
[1] = target: full-length human SNX3 (human, UniProt O60493-1 1-162); experiment: crystal structure
[2] = target: VPS26A residues 1–317, the VPS26 part of the fusion VPS26(1–317)-DMT1(545–568) (human, UniProt O75436-1 1-317); experiment: crystal structure

| binding result [1] | binding result [2] | Binder |
| --- | --- | --- |
| binds | – | {VPS26(1–321)}-TAQPELYLLNT[SeMet] (peptide, UniProt P49281 549-560, looked up) [DMT1-II recycling signal residues 549–560, the DMT1 part of the fusion VPS26(1–321)-DMT1(549–560)] |
| binds | – | {VPS26(1–321)}-TAQPELYL[SeMet]NT[SeMet] (peptide, UniProt P49281 549-560, looked up) |
| – | binds | {VPS26(1–317)}-HLGLTAQPELYLLNTMDADSLVSR (peptide, UniProt P49281 545-568, looked up) [DMT1-II recycling signal residues 545–568, the DMT1 part of the fusion VPS26(1–317)-DMT1(545–568)] |
